{"source": "paper PMC9605988", "about": "“Juxtaposition of Bub1 and Cdc20 on phosphorylated Mad1 during catalytic mitotic checkpoint complex assembly” (Nature Communications, 2022)", "molecules": {"B1": {"name": "Cdc20^N RRK/SSS mutant (Arg27, Arg30, Lys31 to Ser) (domain or fragment, human, UniProt Q12834 1-73, looked up)", "chain": "MAQFAFESDLHSLLQLDAPIPNAPPASWQSSAKEAAGPAPSPMRAANRSHSAGRTPGRTPGKSSSKVQTTPSK", "notes": "human Cdc20, residues 1-73; The purification (with tag cleavage) is told for Cdc20^N; likely the same for the mutant; source: site-directed mutant of the Cdc20^N construct, purified"}, "B2": {"name": "Cdc20^N RRK/SSS: Cdc20N with Arg27, Arg30, Lys31 mutated to Ser (protein)", "chain": "B1 chain", "modifications": "left off: His6, N-terminal, state not stated | MBP, N-terminal, state not stated", "notes": "Cdc20N with Arg27, Arg30, Lys31 mutated to Ser"}, "B3": {"name": "Mad1^485–718 (Mad1^485), unphosphorylated (domain or fragment, UniProt Q9Y6D9 485-718, looked up)", "chain": "SSAEQSFLFSREEADTLRLKVEELEGERSRLEEEKRMLEAQLERRALQGDYDQSRTKVLHMSLNPTSVARQRLREDHSQLQAECERLRGLLRAMERGGTVPADLEAAAASLPSSKEVAELKKQVESAELKNQRLKEVFQTKIQEFRKACYTLTGYQIDITTENQYRLTSLYAEHPGDCLIFKATSPSGSKMQLLETEFSHTVGELIEVHLRRQDSIPAFLSSLTLELFSRQTVA", "notes": "Mad1 residues 485-718; Construct His6-DoubleStrep-TEV-Mad1^485–718; two copies in the tetramer and hexamer with Mad2; also called Mad1 residues 485–718"}, "B4": {"name": "Mad1^485–718 phosphorylated by Mps1 (pMad1^485) (domain or fragment, UniProt Q9Y6D9 485-718, looked up)", "chain": "B3 chain", "modifications": "phosphothreonine at 716 (predominant); lower abundant phosphorylation at Thr500, Ser538, Thr540, Thr550 and Ser551", "notes": "Mad1 residues 485-718; Predominantly one phosphate per monomer by intact mass; also called phosphorylated Mad1^485; phosphorylated Mad1^485–718"}, "B5": {"name": "Q648A/R650A: mutation of the conserved QYRL motif within Mad1CTD, ref 33 (protein, UniProt Q9Y6D9 597-718, looked up, variant Q648A R650A)", "chain": "SSKEVAELKKQVESAELKNQRLKEVFQTKIQEFRKACYTLTGYQIDITTENAYALTSLYAEHPGDCLIFKATSPSGSKMQLLETEFSHTVGELIEVHLRRQDSIPAFLSSLTLELFSRQTVA"}, "B6": {"name": "Mad1^CTD RLK/AAA: Mad1CTD RLK/AAA (residues 617-619) mutant, ref 33 (protein, UniProt Q9Y6D9 597-718, looked up, variant R617A L618A K619A)", "chain": "B5 chain with R21A, L22A, K23A, A52Q, A54R"}}, "key": {"[1]": {"molecular_target": "T1, O-Mad2 R133A (Homo sapiens, UniProt Q13257, R133A)", "T1 construct": "made in house", "T1 sequence (Q13257 whole entry R133A)": "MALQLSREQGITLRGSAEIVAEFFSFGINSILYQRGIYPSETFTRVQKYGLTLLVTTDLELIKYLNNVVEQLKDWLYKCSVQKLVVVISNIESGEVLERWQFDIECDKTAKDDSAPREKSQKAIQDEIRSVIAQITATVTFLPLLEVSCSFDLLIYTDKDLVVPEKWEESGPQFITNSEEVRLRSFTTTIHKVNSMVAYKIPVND", "experiment": "NMR-monitored conversion of O-Mad2 to C-Mad2", "format": "biochemical", "conditions": "for O-Mad2 to C-Mad2 conversion: substoichiometric 2 µM Cdc20MIM (1:50) to 100 µM O-Mad2 R133A", "description": "(§1) The following protein concentrations were used in NMR studies: ^1H,^15N HSQC of Mad1^CTD were collected with a 100 µM sample, whereas a 50 µM sample was used for titrations with Cdc20^N and Cdc20^α1. Cdc20^Box1 peptide was added at mM concentrations to minimise dilution during titration. […] Mad1^CTD was concentrated to 3 mM for titrations into Cdc20^N. ^1H,^15N HSQC of Mad2 were collected at 100 µM. All Mad2 NMR samples contain an R133A mutation to prevent Mad2 dimerisation. The C-Mad2 sample additionally contains an L13A mutation which favours the C-Mad2 state. Cdc20^MIM-bound C-Mad2 sample was prepared by adding a 1:2 excess of Cdc20^MIM peptide to an O-Mad2 sample with R133A mutation. To follow the O-to-C conversion of Mad2, the samples were prepared on ice and monitored using BEST ^1H,^15N-TROSY HSQC. The spectra were acquired with 16 scans and a recycle delay of 400 msec, giving an experimental time of 12 min per spectrum.\n(§2) Mad1^CTD and Mad2 experiments were performed using an in-house 800 MHz Avance III spectrometer and Cdc20^N experiments were performed using an in-house 700 MHz Avance II + spectrometer, both equipped with triple resonance TCI CryoProbes. To retrieve signals that suffer from exchange broadening, we also utilised the Bruker 950 MHz Avance III spectrometer located at MRC Biomedical NMR Centre (Francis Crick Institute). Mad1^CTD and Mad2 spectra were collected at 298 K. Cdc20^N spectra were collected at 278 K to minimise exchange broadening for the largely disordered Cdc20^N."}, "[2]": {"test_system": "pMad1CTD", "experiment": "1H,15N HSQC / CON NMR titration with pMad1CTD", "format": "binding, human", "conditions": "peptide titration, 298 K", "description": "(§3) Uniformly-labelled proteins were expressed in M9 minimal media (6 g/L Na2HPO4, 3 g/L KH2PO4, 0.5 g/L NaCl) supplemented with 1.7 g/L yeast nitrogen base without NH4Cl and amino acids (Sigma Y1251). 1 g/L ^15NH4Cl and 4 g/L unlabelled glucose were supplemented for ^15N labelling. For ^13C/ ^15N double-labelled samples, unlabelled glucose was replaced with 3 g/L ^13C-glucose. Prior to all NMR experiments, proteins were dialysed into 20 mM HEPES, pH 7.0, 100 mM NaCl and 1 mM TCEP.\nas §1, §2\n(§4) For binding studies, the relative peak intensities were normalised to the C-terminal residue Ala718 of Mad1^CTD or Gly73 of Cdc20^N and expressed as PIbound/PIfree, with PIfree and PIbound being the peak heights of the free and bound forms, respectively. Weighted chemical shift perturbations were calculated using the equation[63]: Δδ = [(ΔδHNWHN)^2 + (ΔδNWN)^2)^2]^1/2 where ΔδHN and ΔδN are the chemical shift perturbations in ^1H and ^15N dimensions respectively. The weight factors were determined from the average variances of chemical shifts in the BMRB database, where WHN = 1 and WN = 0.16."}, "[3]": {"molecular_target": "T2, Mad1CTD (unphosphorylated) (Homo sapiens, UniProt Q9Y6D9)", "T2 construct": "the C-terminal domain of Mad1 (residue 597–718); made in house", "T2 sequence (Q9Y6D9 597-718)": "B5 chain with A52Q, A54R", "experiment": "1H,15N HSQC / CON NMR titration with unphosphorylated Mad1CTD", "format": "binding", "conditions": "peptide titration, 298 K", "description": "as §3\nThe following protein concentrations were used in NMR studies: ^1H,^15N HSQC of Mad1^CTD were collected with a 100 µM sample, whereas a 50 µM sample was used for titrations with Cdc20^N and Cdc20^α1. […] To follow the O-to-C conversion of Mad2, the samples were prepared on ice and monitored using BEST ^1H,^15N-TROSY HSQC. […]\nas §4"}, "[4]": {"molecular_target": "T3, preformed AF488-Bub1^CD1:Mad1^CTD complex (Mad1^CTD unphosphorylated) (UniProt Q9Y6D9 597-718, Aurora Fluor 488 (AF488) on the N-terminal Cys; phosphoserine (pSer459); phosphothreonine (pThr461))", "T3 construct": "Mad1 C-terminal domain (Mad1^CTD), residues 597-718; as m1; added N-terminal Cys (carries AF488) and Trp; as m7; Bub1 conserved domain 1 (CD1) peptide; also called Mad1^CTD:AF488-Bub1^CD1 complex; source: mixed from purified Mad1^CTD and synthetic peptide (20 nM: 2.1 µM); copies: 2 + 1", "T3 sequence 1": "B5 chain with A52Q, A54R", "T3 sequence 2": "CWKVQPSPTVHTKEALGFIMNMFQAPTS", "experiment": "fluorescence polarisation; fluorescence anisotropy; Cdc20^N twofold series (100 μM to 6 nM, mixed 1:1) titrated into preformed AF488-Bub1^CD1:Mad1^CTD (20 nM: 2.1 µM); 25 mM HEPES pH 7.75, 1 mM TCEP, 100 mM NaCl, 0.05% Tween-20; 25 °C", "conditions": "both partners purified"}, "[5]": {"molecular_target": "T4, preformed AF488-Bub1^CD1:pMad1^CTD complex (Mad1^CTD phosphorylated at Thr716) (UniProt Q9Y6D9 597-718, phosphothreonine at 716 (pThr716) | Aurora Fluor 488 (AF488) on the N-terminal Cys; phosphoserine (pSer459); phosphothreonine (pThr461))", "T4 construct": "Mad1 C-terminal domain (Mad1^CTD), residues 597-718; as m2; added N-terminal Cys (carries AF488) and Trp; as m7; Bub1 conserved domain 1 (CD1) peptide; source: mixed from purified pMad1^CTD and synthetic peptide (20 nM: 2.1 µM); copies: 2 + 1", "T4 sequence 1": "B5 chain with A52Q, A54R", "T4 sequence 2": "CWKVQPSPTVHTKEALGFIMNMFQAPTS", "experiment": "fluorescence polarisation; fluorescence anisotropy; Cdc20^N twofold series (100 μM to 6 nM, mixed 1:1) titrated into preformed AF488-Bub1^CD1:Mad1^CTD (20 nM: 2.1 µM); 25 mM HEPES pH 7.75, 1 mM TCEP, 100 mM NaCl, 0.05% Tween-20; 25 °C", "conditions": "both partners purified"}, "[6]": {"test_system": "pMad1CTD (Mad1CTD pT716)", "experiment": "SEC-MALS, Cdc20N with pMad1CTD", "format": "binding, human", "conditions": "1:1.2 ratio Mad1CTD dimer to Cdc20N", "description": "Size-exclusion chromatography coupled with multi-angle static light scattering (SEC-MALS), was performed using an Agilent 1200 series LC system with an online Dawn Helios ii system (Wyatt) equipped with a QELS + module (Wyatt) and an Optilab rEX differential refractive index detector (Wyatt). About 100 μl purified protein at ~3.0 mg/ml was auto-injected onto Superdex 75 or a Superdex 200 Increase 10/300 GL column (GE Healthcare) and run at 0.5 ml/min. The molecular masses were analysed with ASTRA 7.3.0.11 (Wyatt). Data were plotted using Prism 8.4.3 (GraphPad Software, Inc). Purified Cdc20^N and Cdc20^N mutants were incubated with Mad1^CTD wild-type or mutants at a 1:1.2 ratio of Mad1^CTD dimer to Cdc20^N."}, "[7]": {"molecular_target": "the molecule itself", "experiment": "SEC + SEC-MALS; Mad1:C-Mad2 tetramer re-purified by SEC after adding excess Mad2; hexamer formed with an excess of Mad2LL; homogeneity confirmed by SEC-MALS"}, "[8]": {"test_system": "Cdc20", "conditions": "cited from earlier work", "from_the_text": "NMR spectroscopy was used to obtain structural insights into the Cdc20^N:Mad1^CTD interaction. Unlabelled Cdc20^N was titrated into either ^15N-labelled Mad1^CTD or pMad1^CTD (Fig. 2c, d and Supplementary Fig. 3a, b). […] Similar to Bub1^CD1, the interaction of Cdc20 α1 with Mad1^CTD would largely be driven by hydrophobic interactions (Fig. 4e). This model predicts that Gln3 and Glu7, and Asp9 of Cdc20 α1 interact with Arg617 and Lys619, respectively of the Mad1^CTD RLK motif (Fig. 4d). This is consi ..."}}, "note": "Positions count from the first letter of the chain named. In names and notes the source's numbering stands. Entries after “also recorded” stand apart in the source; their conditions may differ. Where two headings read alike, the source gives them in different places."}
{"molecule": "O-Mad2: open Mad2 with R133A mutation to prevent dimerisation", "values": [{"measurement": "time for O-Mad2 to C-Mad2 conversion", "setting": "[1]; absence of Cdc20MIM, peer review response", "result": 24, "unit": "h"}]}
{"molecule": "MAQFAFESDLHSLL [Cdc20 α1, N-terminal α1 helix peptide of Cdc20]", "values": [{"measurement": "binding by NMR chemical shift perturbation", "setting": "[2]", "result": "weak interaction; also recorded: weaker"}]}
{"molecule": "NLNGFDVEEAKILRLSGKPQNAPEGYQNRLKVLY [Cdc20^MIM]", "values": [{"measurement": "O-Mad2 to C-Mad2 conversion", "setting": "[1]", "result": "cannot be achieved"}, {"measurement": "O-Mad2 to C-Mad2 conversion", "setting": "[1]; listed as Cdc20MIM", "result": "The majority of Mad2 remains in an open state; also recorded: nearly all of Mad2 remains in an open state"}]}
{"molecule": "PPARWQRKAKEAA [Cdc20 Box1, Box1 motif peptide of Cdc20]", "values": [{"measurement": "binding by NMR chemical shift perturbation", "setting": "[3]", "result": "not Mad1^CTD"}, {"measurement": "binding by NMR chemical shift perturbation", "setting": "[2]", "result": "binds pMad1^CTD"}, {"measurement": "binding by NMR chemical shift perturbation", "setting": "[2]; listed as pMad1CTD:Cdc20Box1", "result": "appeared stronger than that between pMad1CTD:Cdc20α1"}]}
{"molecule": "B1", "values": [{"measurement": "Kd", "setting": "[4]", "result": 18, "unit": "µM"}, {"measurement": "Kd", "setting": "[5]", "result": 23, "unit": "µM"}]}
{"molecule": "B2", "values": [{"measurement": "binding by SEC-MALS", "setting": "[6]", "result": "abolished its interaction with pMad1^CTD"}]}
{"molecule": "B3", "values": [{"measurement": "binding result", "setting": "[7]", "result": "binds"}]}
{"molecule": "B4", "values": [{"measurement": "binding result", "setting": "[7]", "result": "binds"}]}
{"molecule": "B5", "values": [{"measurement": "binding of Cdc20 to Mad1 mutant", "setting": "[8]", "result": "impaired binding to Cdc20"}, {"measurement": "binding of Cdc20 to Mad1 mutant", "setting": "[8]; listed as Q648A and R650A", "result": "impaired binding of Cdc20^N to Mad1"}]}
{"molecule": "B6", "values": [{"measurement": "binding of Cdc20 to Mad1 mutant", "setting": "[8]", "result": "abolished Cdc20 binding"}, {"measurement": "binding of Cdc20 to Mad1 mutant", "setting": "[8]; listed as RLK/AAA", "result": "impaired binding of Cdc20^N to Mad1"}]}
